Data taken from article PMC7337384.

Molecular target: SARS-CoV-2 S-protein receptor-binding domain fused to the Fc domain of human IgG1 (SARS-CoV-2) (UniProt P0DTC2)
Test: SPR

soluble monomeric R. macrotis ACE2 (domain or fragment)
Kd: 4.6 µM
